From the supplement of paper PMC9112550, “Optimization of the antimicrobial peptide Bac7 by deep mutational scanning” (BMC Biology, 2022)

Each sequence was assayed on Escherichia coli TOP10 (assay: shrunken log2 fold change of peptide-encoding DNA abundance (4.5 h post-induction vs induction); higher = less antimicrobial activity (less host growth inhibition)). Details: time post-induction: 4.5 h; library: site-saturation at positions 5, 18, 19, 20.
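Further: peptides expressed intracellularly from a pBAD plasmid library in pooled LB shake-flask culture, induced with 0.3% L-arabinose, DNA abundance read by NGS, three biological replicates, DESeq2 with apeglm shrinkage.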

Sequence	shrunken log2 fold change
RRIRYRPPRLPRPRPRPQTMPRP	-0.23
RRIRDRPPRLPRPRPRPNMEPRP	0.0616
RRIRHRPPRLPRPRPRPEDRPRP	-0.0767
RRIRPRPPRLPRPRPRPLLNPRP	-0.224
RRIRQRPPRLPRPRPRPIMVPRP	-0.0523
RRIRRRPPRLPRPRPRPPHPPRP	0.886
RRIRRRPPRLPRPRPRPWWTPRP	0.0815
RRIRLRPPRLPRPRPRPPCMPRP	-0.0839
RRIRARPPRLPRPRPRPALGPRP	0.73
RRIRKRPPRLPRPRPRPGCGPRP	0.761
RRIRPRPPRLPRPRPRPIYEPRP	-0.0945
RRIRPRPPRLPRPRPRPEDAPRP	0.0442
RRIRIRPPRLPRPRPRPQEEPRP	0.0133
RRIRLRPPRLPRPRPRPPQQPRP	0.313
RRIRNRPPRLPRPRPRPSAGPRP	-0.225
RRIRPRPPRLPRPRPRPGCRPRP	0.289
RRIRARPPRLPRPRPRPHRVPRP	-0.13
RRIRRRPPRLPRPRPRPFICPRP	-0.0336
RRIRQRPPRLPRPRPRPKRCPRP	0.129
RRIRVRPPRLPRPRPRPRSPPRP	0.342
RRIRPRPPRLPRPRPRPPAYPRP	-0.0312
RRIRTRPPRLPRPRPRPKQMPRP	0.0252
RRIRYRPPRLPRPRPRPHGHPRP	-0.358
RRIRARPPRLPRPRPRPWEYPRP	-0.00494
RRIRYRPPRLPRPRPRPGDHPRP	0.0294

Sequence	shrunken log2 fold change
RRIRFRPPRLPRPRPRPHAQPRP	-0.305
RRIRHRPPRLPRPRPRPWQTPRP	0.266
RRIRERPPRLPRPRPRPVGCPRP	0.168
RRIRFRPPRLPRPRPRPHQQPRP	0.0921
RRIRPRPPRLPRPRPRPASDPRP	0.261
RRIRGRPPRLPRPRPRPYWQPRP	-0.369
RRIRQRPPRLPRPRPRPCFHPRP	-0.425
RRIRKRPPRLPRPRPRPRLYPRP	0.0187
RRIRQRPPRLPRPRPRPTVSPRP	-0.14
RRIRQRPPRLPRPRPRPVYDPRP	-0.228
RRIRLRPPRLPRPRPRPMVAPRP	-0.147
RRIRIRPPRLPRPRPRPKLTPRP	0.0656
RRIRYRPPRLPRPRPRPHGRPRP	-0.00992
RRIRQRPPRLPRPRPRPNFPPRP	-0.00205
RRIRWRPPRLPRPRPRPEEPPRP	0.805
RRIRWRPPRLPRPRPRPGVMPRP	0.477
RRIRVRPPRLPRPRPRPIFSPRP	-0.628
RRIRQRPPRLPRPRPRPFICPRP	-0.0129
RRIRIRPPRLPRPRPRPNMKPRP	-0.625
RRIRTRPPRLPRPRPRPVLFPRP	-0.193
RRIRSRPPRLPRPRPRPCVMPRP	0.0389
RRIRIRPPRLPRPRPRPLQKPRP	-0.0683
RRIRVRPPRLPRPRPRPGPCPRP	-0.128
RRIRFRPPRLPRPRPRPLMKPRP	-1.06
RRIRSRPPRLPRPRPRPPIFPRP	-0.576

Sequence	shrunken log2 fold change
RRIRRRPPRLPRPRPRPWLEPRP	0.0128
RRIRVRPPRLPRPRPRPMWQPRP	-0.0393
RRIRGRPPRLPRPRPRPTYPPRP	0.0703
RRIRVRPPRLPRPRPRPWAQPRP	-0.365
RRIRERPPRLPRPRPRPSGQPRP	-0.148
RRIRVRPPRLPRPRPRPPGNPRP	0.17
RRIRERPPRLPRPRPRPHKKPRP	0.0621
RRIRDRPPRLPRPRPRPYNKPRP	-0.398
RRIRMRPPRLPRPRPRPADQPRP	-0.0145
RRIRARPPRLPRPRPRPEGMPRP	1.2
RRIRIRPPRLPRPRPRPRTLPRP	-0.259
RRIRHRPPRLPRPRPRPIDFPRP	0.0271
RRIRGRPPRLPRPRPRPHCSPRP	0.144
RRIRYRPPRLPRPRPRPCLKPRP	-0.0431
RRIRDRPPRLPRPRPRPNTGPRP	-0.098
RRIRTRPPRLPRPRPRPALTPRP	0.251
RRIRGRPPRLPRPRPRPTRCPRP	0.527
RRIRWRPPRLPRPRPRPYWAPRP	-0.298
RRIRLRPPRLPRPRPRPVYNPRP	0.41
RRIRRRPPRLPRPRPRPAFPPRP	0.356
RRIRGRPPRLPRPRPRPGCKPRP	0.441
RRIRERPPRLPRPRPRPMFSPRP	-0.104
RRIRIRPPRLPRPRPRPGNVPRP	-0.0399
RRIRNRPPRLPRPRPRPLRCPRP	0.0876
RRIRMRPPRLPRPRPRPASMPRP	0.311
